Experimental data reported in publication PMC12199161, “Structural and functional studies of the main replication protein NS1 of human parvovirus B19” (Nucleic Acids Research, 2025).
Values joined by “and” are separate entries in the source; they are usually repeats but may differ in a detail not shown here. Equal values may be shown once.

How the values were obtained:
[1] = target: T1, NS1_2-570 (Human parvovirus B19 isolate AU, UniProt P07298); assay: cryo-EM structure of complex; assay type: binding; conditions: Mg2+ (5 mM MgCl2 in DNA complexes); Walker A site, one AMPPNP per protomer; DNA-free dodecamer; also ternary complexes with ssDNA (3.3 Å, hexamer) and dsDNA (3.43 Å, dodecamer)
T1 construct: gene NS1; residues 2-570 of 671 (Nuc, OD, SF3 HD, TAD; ZnD missing); N-terminal His-MBP tag, TEV-treated; codon-optimized cDNA; E. coli Rosetta (DE3); monomer 62 kDa; ~830 kDa oligomer by gel filtration
T1 sequence (P07298 2-570): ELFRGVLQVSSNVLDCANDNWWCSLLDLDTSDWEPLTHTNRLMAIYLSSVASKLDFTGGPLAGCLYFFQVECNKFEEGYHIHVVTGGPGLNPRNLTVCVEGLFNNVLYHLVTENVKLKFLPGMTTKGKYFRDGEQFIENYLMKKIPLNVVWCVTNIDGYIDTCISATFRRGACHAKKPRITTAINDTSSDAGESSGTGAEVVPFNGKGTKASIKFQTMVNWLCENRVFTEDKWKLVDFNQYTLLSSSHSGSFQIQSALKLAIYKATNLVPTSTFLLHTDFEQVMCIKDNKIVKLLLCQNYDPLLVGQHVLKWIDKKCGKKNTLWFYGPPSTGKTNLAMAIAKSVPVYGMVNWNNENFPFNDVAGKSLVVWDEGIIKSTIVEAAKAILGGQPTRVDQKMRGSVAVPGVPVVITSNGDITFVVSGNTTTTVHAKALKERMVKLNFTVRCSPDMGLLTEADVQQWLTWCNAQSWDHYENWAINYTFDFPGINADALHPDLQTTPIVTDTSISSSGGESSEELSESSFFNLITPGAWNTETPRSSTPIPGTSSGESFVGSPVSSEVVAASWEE

[2] = target: the molecule itself; assay: cryo-EM structure
[3] = target: the molecule itself; assay: SEC; NS1_200-501 (WT and 3G mutant) on Superdex 200 Increase 10/30 GL
[4] = target: NS1_2-570 (Human parvovirus B19 (B19V), UniProt I7BP20 2-570); assay: EMSA; no ATP or Mg2+ listed; conditions: protein: recombinant; tags: N-terminal His6-MBP, TEV protease treated; chain copies: 12; label: 5'-FAM on top strand; blunt

Nc1ncnc2c1ncn2[C@@H]1O[C@H](COP(=O)(O)OP(=O)(O)NP(=O)(O)O)[C@@H](O)[C@H]1O [AMPPNP]
AMPPNP binding site [1]: one AMPPNP molecule is captured at the characteristic Walker A region of each NS1 protomer

B1: B19V NS1_2-570 protein (domain or fragment)
chain: ELFRGVLQVSSNVLDCANDNWWCSLLDLDTSDWEPLTHTNRLMAIYLSSVASKLDFTGGPLAGCLYFFQVECNKFEEGYHIHVVIGGPGLNPRNLTVCVEGLFNNVLYHLVTENVKLKFLPGMTTKGKYFRDGEQFIENYLMKKIPLNVVWCVTNIDGYIDTCISATFRRGACHAKKPRITTAINDTSSDAGESSGTGAEVVPFNGKGTKASIKFQTMVNWLCENRVFTEDKWKLVDFNQYTLLSSSHSGSFQIQSALKLAIFKATNLVPTSTFLLHTDFEQVMCIKDNKIVKLLLCQNYDPLLVGQHVLKWIDKKCGKKNTLWFYGPPSTGKTNLAMAIAKSVPVYGMVNWNNENFPFNDVAGKSLVVWDEGIIKSTIVEAAKAILGGQPTRVDQKMRGSVAVPGVPVVITSNGDITFVVSGNTTTTVHAKALKERMVKLNFTVRCSPDMGLLTEADVQQWLTWCNAQSWDHYENWAINYTFDFPGINADALHPDLQTTPIVTDTSISSSGGESSEELSESSFFNLITPGAWNTETPRSSTPIPGTSSGESFVGSSVSSEVVAASWEE
notes: source: E. coli Rosetta (DE3), purified (HisTrap, heparin, TEV protease, HisTrap, Superose 6 gel filtration)
stoichiometry N [2]: 12 and 6

B2: NS1_200-501 protein (domain or fragment)
chain: AEVVPFNGKGTKASIKFQTMVNWLCENRVFTEDKWKLVDFNQYTLLSSSHSGSFQIQSALKLAIFKATNLVPTSTFLLHTDFEQVMCIKDNKIVKLLLCQNYDPLLVGQHVLKWIDKKCGKKNTLWFYGPPSTGKTNLAMAIAKSVPVYGMVNWNNENFPFNDVAGKSLVVWDEGIIKSTIVEAAKAILGGQPTRVDQKMRGSVAVPGVPVVITSNGDITFVVSGNTTTTVHAKALKERMVKLNFTVRCSPDMGLLTEADVQQWLTWCNAQSWDHYENWAINYTFDFPGINADALHPDLQTT
notes: source: E. coli Rosetta (DE3), purified
stoichiometry N [3]: 12

B3: duplex DNA-1 (dsDNA)
DNA 1: AAGAAGACACCAAATCAGATGCCGCCGGTCGCCGCCGGTAGGCGGGAC
DNA 2: GTCCCGCCTACCGGCGGCGACCGGCGGCATCTGATTTGGTGTCTTCTT
binding result [4]: binds
